According to paper PMC9691366, “Modulating the pharmacokinetic profile of Actinium-225-labeled macropa-derived radioconjugates by dual targeting of PSMA and albumin” (Theranostics, 2022):

Columns and labels:
[1] = format: physicochemical; conditions: pH 7.4
Protocol: 1-Octanol/water distribution coefficients (log D) were determined by applying the shake-flask-method. 20 µL of the reaction mixture were poured into 580 µL of 5xPBS (pH 7.4). Afterwards, 600 µL of 1-octanol was added and the two-phase-system was vigorously stirred for 5 min. Then, the samples were centrifuged, the phases were separated and the count rates were measured using ISOMED2160 sodium iodide crystal detector (at least 4 h after phase separation due to initial decay products).

[2] = Ex vivo biodistribution in LNCaP tumor-bearing SCID mice; conditions: mouse, in vivo, 50 kBq per mouse; for tissue uptake at 1 h: 1 h p.i.; for tissue uptake at 4 h: 4 h p.i.; for tissue uptake at 24 h: 24 h p.i.; for tissue uptake at 48 h: 48 h p.i.; for tissue uptake at 72 h: 72 h p.i.; for tissue uptake at 120 h: 120 h p.i.
Text: (§1) The biodistribution experiments with [^225Ac]Ac-mcp-M-alb-PSMA and [^225Ac]Ac-mcp-D-alb-PSMA were accomplished using LNCaP tumor-bearing mice. The SCID male mice (ENVIGO, Indianapolis, IN, USA) 8 weeks old were subcutaneously xenografted into the right flank with 10∙10^6 LNCaP cells (ATCC, Manassas, VA, USA) mixed with Matrigel Matrix (Corning Inc., Corning, NY, USA) at a 1:1 ratio. The tumor growth was periodically monitored by caliper-based measurements. When the tumor volume reached 200-300 mm^3 (i.e., approx. 6 weeks after the xenografting of the cells), the mice were enrolled in the biodistribution study. All experimental animals were housed in a specific-pathogen-free animal facility and all experiments with animals were performed in accordance with appropriate legal norms (Czech Law No. 246/1992) and with the approval of the Ministry of Education, Youth and Sports (MSMT-35035/2019-3) and approval of the Ethical committee of Faculty of Medicine and Dentistry, Palacky University in Olomouc. The number of animals was reduced as much as possible (n = 3-4 per group and time point) for in vivo experiments in order to strictly follow 3Rs principle.
(§2) For the purpose of biodistribution studies, the ^225Ac-radioconjugates were diluted with saline. The diluted ^225Ac-radioconjugates were applied retro-orbitally (r.o.) to the experimental animals at a dose of 50 kBq per mouse corresponding to 10 pmol of the PSMA-inhibitor. The radioactivity application was carried out under 2% isoflurane anesthesia (FORANE, Abbott Laboratories, Abbott Park, IL, USA) to minimize animal suffering and to prevent animal motion. The mice were sacrificed by cervical dislocation 1, 4, 24, 48, 72, and 120 h (plus 168 h for [^225Ac]Ac-mcp-D-alb-PSMA) post-injection and organs of interest (blood, spleen, pancreas, stomach, intestine, kidneys, liver, heart, lungs, muscle, bone, and tumor) were collected. The organs were weighed, and their radioactivity was counted on an automatic gamma counter. The uptake of the ^225Ac-radioconjugates was expressed as a percentage of injected dose per gram of the corresponding organ (%ID/g). The area under the curve (AUC) was determined for both tested PSMA ligands from non-decay-corrected data obtained from the ex vivo biodistribution data of the tumors, kidneys, and blood.

[3] = test system: LNCaP tumor-bearing SCID mice; assay: as above
Text: as §1, §2

[4] = non-decay corrected biodistribution data, mean ± SD

Work on O=C(O)CC[C@H](NC(=O)N[C@@H](CCCCNC(=O)[C@H](Cc1ccc2ccccc2c1)NC(=O)[C@H]1CC[C@H](CNC(=O)[C@H](CCCCn2cc(COc3cc(CN4CCOCCOCCN(Cc5cccc(C(=O)O)n5)CCOCCOCC4)nc(C(=O)O)c3)nn2)NC(=O)[C@H](CCC(=O)O)NC(=O)CCCc2ccc(I)cc2)CC1)C(=O)O)C(=O)O [[^225Ac]Ac-mcp-M-alb-PSMA, metal not drawn] yielded a logD [1] of -2.4, a tissue to tissue ratio ([2]; male, SCID, total radioactivity) of 1490 and a tissue uptake at 1 h ([2]; blood uptake (AV)) of 6.47 %ID/g. The tissue uptake at 4 h ([2]; blood uptake (AV)) was 4.8 %ID/g, the tissue uptake at 24 h ([2]; blood uptake (AV)) was 0.54 %ID/g and the tissue uptake at 48 h ([2]; blood uptake (AV)) was 0.08 %ID/g. It also gave a tissue uptake at 72 h ([2]; blood uptake (AV)) of 0.03 %ID/g, a tissue uptake at 120 h ([2]; blood uptake (AV)) of 0.03 %ID/g and a tissue uptake at 1 h ([2]; femur uptake (AV)) of 0.61 %ID/g. The tissue uptake at 4 h ([2]; femur uptake (AV)) was 0.62 %ID/g, the tissue uptake at 24 h ([2]; femur uptake (AV)) was 0.32 %ID/g and the tissue uptake at 48 h ([2]; femur uptake (AV)) was 0.44 %ID/g. For the same compound, the tissue uptake at 72 h ([2]; femur uptake (AV)) was 0.32 %ID/g, the tissue uptake at 120 h ([2]; femur uptake (AV)) was 0.43 %ID/g and the tissue uptake at 1 h ([2]; heart uptake (AV)) was 2.03 %ID/g. It also gave a tissue uptake at 4 h ([2]; heart uptake (AV)) of 1.63 %ID/g, a tissue uptake at 24 h ([2]; heart uptake (AV)) of 0.34 %ID/g and a tissue uptake at 48 h ([2]; heart uptake (AV)) of 0.22 %ID/g. The tissue uptake at 72 h ([2]; heart uptake (AV)) was 0.15 %ID/g, the tissue uptake at 120 h ([2]; heart uptake (AV)) was 0.23 %ID/g and the tissue uptake at 1 h ([2]; intestine uptake (AV)) was 0.6 %ID/g. It also gave a tissue uptake at 4 h ([2]; intestine uptake (AV)) of 0.54 %ID/g, a tissue uptake at 24 h ([2]; intestine uptake (AV)) of 0.81 %ID/g and a tissue uptake at 48 h ([2]; intestine uptake (AV)) of 0.1 %ID/g. It also gave a tissue uptake at 72 h ([2]; intestine uptake (AV)) of 0.12 %ID/g, a tissue uptake at 120 h ([2]; intestine uptake (AV)) of 0.06 %ID/g and a tissue uptake at 1 h ([2]; kidneys uptake (AV)) of 29.5 %ID/g. For the same compound, the tissue uptake at 4 h ([2]; kidneys uptake (AV)) was 67.9 %ID/g, the tissue uptake at 24 h ([2]; kidneys uptake (AV)) was 33.1 %ID/g and the tissue uptake at 48 h ([2]; kidneys uptake (AV)) was 15.7 %ID/g. It also gave a tissue uptake at 72 h ([2]; kidneys uptake (AV)) of 9.59 %ID/g, a tissue uptake at 120 h ([2]; kidneys uptake (AV)) of 8.82 ± 4.4 %ID/g and a tissue uptake at 1 h ([2]; liver uptake (AV)) of 1.44 %ID/g. It also gave a tissue uptake at 4 h ([2]; liver uptake (AV)) of 1.43 %ID/g, a tissue uptake at 24 h ([2]; liver uptake (AV)) of 1.08 %ID/g and a tissue uptake at 48 h ([2]; liver uptake (AV)) of 1.19 %ID/g. It also gave a tissue uptake at 72 h ([2]; liver uptake (AV)) of 1.08 %ID/g, a tissue uptake at 120 h ([2]; liver uptake (AV)) of 1.27 %ID/g and a tissue uptake at 1 h ([2]; lung uptake (AV)) of 6.27 %ID/g. For the same compound, the tissue uptake at 4 h ([2]; lung uptake (AV)) was 4.99 %ID/g, the tissue uptake at 24 h ([2]; lung uptake (AV)) was 2.19 %ID/g and the tissue uptake at 48 h ([2]; lung uptake (AV)) was 1.77 %ID/g. For the same compound, the tissue uptake at 72 h ([2]; lung uptake (AV)) was 1.47 %ID/g, the tissue uptake at 120 h ([2]; lung uptake (AV)) was 1.73 %ID/g and the tissue uptake at 1 h ([2]; muscle uptake (AV)) was 0.53 %ID/g. For the same compound, the tissue uptake at 4 h ([2]; muscle uptake (AV)) was 0.51 %ID/g, the tissue uptake at 24 h ([2]; muscle uptake (AV)) was 0.14 %ID/g and the tissue uptake at 48 h ([2]; muscle uptake (AV)) was 0.07 %ID/g. The tissue uptake at 72 h ([2]; muscle uptake (AV)) was 0.08 %ID/g, the tissue uptake at 120 h ([2]; muscle uptake (AV)) was 0.12 %ID/g and the tissue uptake at 1 h ([2]; pancreas uptake (AV)) was 0.57 %ID/g. The tissue uptake at 4 h ([2]; pancreas uptake (AV)) was 0.57 %ID/g, the tissue uptake at 24 h ([2]; pancreas uptake (AV)) was 0.26 %ID/g and the tissue uptake at 48 h ([2]; pancreas uptake (AV)) was 0.1 %ID/g. It also gave a tissue uptake at 72 h ([2]; pancreas uptake (AV)) of 0.06 %ID/g, a tissue uptake at 120 h ([2]; pancreas uptake (AV)) of 0.07 %ID/g and a tissue uptake at 1 h ([2]; spleen uptake (AV)) of 7.24 %ID/g. The tissue uptake at 4 h ([2]; spleen uptake (AV)) was 3.4 %ID/g, the tissue uptake at 24 h ([2]; spleen uptake (AV)) was 1.24 %ID/g and the tissue uptake at 48 h ([2]; spleen uptake (AV)) was 1.31 %ID/g. It also gave a tissue uptake at 72 h ([2]; spleen uptake (AV)) of 1.12 %ID/g, a tissue uptake at 120 h ([2]; spleen uptake (AV)) of 1.43 %ID/g and a tissue uptake at 1 h ([2]; stomach uptake (AV)) of 0.83 %ID/g. For the same compound, the tissue uptake at 4 h ([2]; stomach uptake (AV)) was 0.58 %ID/g, the tissue uptake at 24 h ([2]; stomach uptake (AV)) was 0.39 %ID/g and the tissue uptake at 48 h ([2]; stomach uptake (AV)) was 0.17 %ID/g. The tissue uptake at 72 h ([2]; stomach uptake (AV)) was 0.1 %ID/g, the tissue uptake at 120 h ([2]; stomach uptake (AV)) was 0.11 %ID/g and the tissue uptake at 1 h ([2]; tumor uptake (AV)) was 5.96 %ID/g. It also gave a tissue uptake at 4 h ([2]; tumor uptake (AV)) of 18 %ID/g, a tissue uptake at 24 h ([2]; tumor uptake (AV)) of 29.5 %ID/g and a tissue uptake at 48 h ([2]; tumor uptake (AV)) of 36.5 %ID/g. The tissue uptake at 72 h ([2]; tumor uptake (AV)) was 38.7 %ID/g, the tissue uptake at 120 h ([2]; tumor uptake (AV)) was 46 %ID/g and the tissue uptake at 128 h ([2]; tumor uptake (highest accumulation), 128 h p.i.) was 46 ± 7.77 %ID/g. The AUCTu-to-AUCBl ([3]; mouse, in vivo) was 26, the AUCTu-to-AUCKi ([3]; mouse, in vivo) was 1.5 and the AUCTu-to-AUCLi ([3]; mouse, in vivo) was 29. The “blood clearance: duration of excretion” value ([3]; mouse, in vivo) was 24 h, the “maximal tumor uptake compared to counterpart without dedicated albumin binder” value ([3]; mouse, in vivo) was “approximately four times higher” and the “AUC Blood” value [3, 4] was 132 ± 7.2 %ID/g.h. The “AUC Kidneys” value [3, 4] was 2269 ± 288 %ID/g.h, the “AUC Liver” value [3, 4] was 119 ± 4.6 %ID/g.h and the “AUC Tumor” value [3, 4] was 3494 ± 194 %ID/g.h.
